Laboratory results from patent publication US20250368742A1 (D2M BIOTHERAPEUTICS, published 2025).
Positions count from the first letter of the chain named. Read-outs that look alike come from different tables or passages of the source.

B1: h36B3GS (antibody, V domains shown)
VH: QVQLVQSGAEVKKPGASVKVSCKASGYAFTKYNFYWVRQAPGQGLEWIGYIDPYFGGTVYNQKFKGKATLTVDKSTSTAYMELRSLRSDDTAVYYCATTDSYSLFTYWGQGTLVTVSS
VL: DIQMTQSPSSLSASVGDRVTITCRASQDISNYLNWYQQTPGKAVKLLIYYTSRLHSGVPSRFSGSGSGTDYTLTISSLQPEDIATYFCLQGNTLPFTFGQGTKLEIK
notes: humanized #36 variant; the text writes h36B3(GS); copies: 2 + 2
B2: MICA008-ECD-HISAvi (ligand)
chain: EPHSLRYNLTVLSWDGSVQSGFLAEVHLDGQPFLRYDRQKCRAKPQGQWAEDVLGNKTWDRETRDLTGNGKDLRMTLAHIKDQKEGLHSLQEIRVCEIHEDNSTRSSQHFYYDGELFLSQNLETEEWTVPQSSRAQTLAMNVRNFLKEDAMKTKTHYHAMHADCLQELRRYLESGVVLRRTVPPMVNVTRSEASEGNITVTCRASSFYPRNIILTWRQDGVSLSHDTQQWGDVLPDGNGTYQTWVATRICRGEEQRFTCYMEHSGNHSTHPVPSGKVLVLQSHWQHHHHHHGLNDIFEAQKIEWHE
notes: Two sources under one name in the two kinetic assays; also called MICA008 polypeptide
B3: MICA002-ECD-HISAvi (ligand)
chain: B2 chain with W14G, Y36C, V129M, E173K, S206G, R210W, I213T, T215S, R251Q
notes: also called MICA002 polypeptide
B4: D2M001-003 (antibody, V domains shown)
VH: QVQLVQSGAEVKKPGSSVKVSCKASGYAFHDYLIEWVRQAPGQGLEWIGGINPGSGSTNYAQKFQGRATLTADKSTSTAYMELSSLRSEDTAVYYCARLDGNYVGYWGQGTLVTVSS
VL: DIQMTQSPSSLSASVGDRVTITCRASGNIHNYLAWYQQKPGKSPKLLVYHAKTLQSGVPSRFSGSGSGTDYTLTISSLQPEDVATYYCQHFWSTPRTFGGGTKVEIK
notes: only the CDRs are tied to the name in the text; copies: 2 + 2
B5: D2M001-004 (antibody, V domains shown)
VH: B4 VH with H30V, I51V, D100E
VL: B4 VL
notes: as for B4
B6: MICB005-ECD-HISAvi (ligand)
chain: EPHSLRYNLMVLSQDGSVQSGFLAEGHLDGQPFLRYDRQKRRAKPQGQWAEDVLGAKTWDTETEDLTENGQDLRRTLTHIKDQKGGLHSLQEIRVCEIHEDSSTRGSRHFYYDGELFLSQNLETQESTVPQSSRAQTLAMNVTNFWKEDAMKTKTHYRAMQADCLQKLQRYLKSGVAIRRTVPPMVNVTCSEVSEGNITVTCRASSFYPRNITLTWRQDGVSLSHNTQQWGDVLPDGNGTYQTWVATRIRQGEEQRFTCYMEHSGNHGTHPVPSGKALVLQSQRTDHHHHHHGLNDIFEAQKIEWHE
notes: Two sources under one name in the two kinetic assays; also called MICB005 polypeptide
B7: D2M001-001 (antibody, V domains shown)
VH: QVQLVQSGAEVKKPGSSVKVSCKASGYTFSHHSISWVRQAPGQGLEWIGGIYPGKIKTNYAQKFQGRATLTADKSTSTAYMELSSLRSEDTAVYYCATLYGNYEAYWGQGTLVTVSS
VL: DIQMTQSPSSLSASVGDRVTITCRASENIYGALNWYQQKPGKSPKLLIYGTTSLQSGVPSRFSGSGSGRDYTLTISSLQPEDFATYYCQNVLTTPPWTFGGGTKVEIK
notes: as for B4
B8: 13A9 (antibody, human IgG1, kappa, V domains shown)
VH: QVQLQQSGAELVRPGTSVKVSCKASGYAFTNYLIEWVKQRPGQGLEWIGAINPGSGATNYNEKFKDKARLTADKSSNTAYLQFSSLTSDDSAVYFCARFLGNYFDNWGQGATLTVSS
VL: DIQMTQSPASLSASVGETVTITCRASGNIHSYLAWYQQKQGKSPQLLVYYAETLADGVPSRFSGRGSGTQYSLKINSLQPEDFGSYFCQQFWTTPYTFGGGTKVEIKR

Assays:
human MICA002 on cells [1] = target: T1, human MICA002 on cells (human); assay: flow cytometry, CHO-MICA002 cells
T1 chain: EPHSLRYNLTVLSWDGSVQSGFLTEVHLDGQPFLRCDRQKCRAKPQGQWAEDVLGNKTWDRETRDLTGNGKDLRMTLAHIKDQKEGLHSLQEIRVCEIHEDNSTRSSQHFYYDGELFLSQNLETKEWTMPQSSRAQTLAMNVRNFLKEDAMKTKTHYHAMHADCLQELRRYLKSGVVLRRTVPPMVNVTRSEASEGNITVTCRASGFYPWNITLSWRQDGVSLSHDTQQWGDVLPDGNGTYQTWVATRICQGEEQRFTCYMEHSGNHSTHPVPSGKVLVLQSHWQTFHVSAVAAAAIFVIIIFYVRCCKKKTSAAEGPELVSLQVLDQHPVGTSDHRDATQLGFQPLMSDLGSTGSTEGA

NKG2D-His = target: T2, NKG2D-His (UniProt P26718 78-216, limits assumed); assay: ELISA: NKG2D-His coated, MICA/B-ECD titrated, detection 1D5 + anti-hFc-HRP
T2 sequence (looked up): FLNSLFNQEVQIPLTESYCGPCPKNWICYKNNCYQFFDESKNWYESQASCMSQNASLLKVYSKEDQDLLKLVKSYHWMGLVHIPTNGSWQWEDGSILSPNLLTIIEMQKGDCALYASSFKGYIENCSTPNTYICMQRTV

human MICA002 on cells [2] = target: T1, human MICA002 on cells; assay: flow cytometry, CHO-MICA002 cells
human MICA004 on cells [3] = target: T3, human MICA004 on cells (human); assay: flow cytometry, CHO-MICA004 cells
T3 construct: whole, on cells; also called CHO-MICA004; C1R-MICA004
T3 sequence (Q29983 whole entry): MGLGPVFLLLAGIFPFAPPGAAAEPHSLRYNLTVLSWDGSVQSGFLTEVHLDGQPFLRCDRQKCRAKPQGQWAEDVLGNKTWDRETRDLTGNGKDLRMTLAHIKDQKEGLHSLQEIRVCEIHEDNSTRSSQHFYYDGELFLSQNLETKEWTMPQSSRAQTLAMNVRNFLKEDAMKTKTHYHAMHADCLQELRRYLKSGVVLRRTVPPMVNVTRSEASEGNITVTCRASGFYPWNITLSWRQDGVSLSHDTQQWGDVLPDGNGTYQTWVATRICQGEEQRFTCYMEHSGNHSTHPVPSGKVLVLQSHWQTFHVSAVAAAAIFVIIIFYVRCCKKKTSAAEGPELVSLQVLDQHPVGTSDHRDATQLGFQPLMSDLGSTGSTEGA

human MICB005 on cells [4] = target: T4, human MICB005 on cells (human); assay: flow cytometry, CHO-MICB005 cells
T4 construct: whole, on cells; also called CHO-MICB005; C1R-MICB005

MICA002-ECD-HISAvi [5] = target: B3; assay: SPR (Carterra); antibody captured by anti-human Fc, monomeric ECD antigen injected
Experimental: (§1) The dissociation kinetics were monitored for approximately 10 minutes. The chip surface was regenerated between binding cycles with 10 mM glycine HCl, pH 1.7. Binding kinetics were analyzed using software supplied by the manufacturer.

MICA004-ECD-HISAvi [6] = target: T5, MICA004-ECD-HISAvi (human); assay: as above
T5 construct: also called MICA004 polypeptide
T5 chain: B2 chain with L122V, G175S, T181R, I213T, R251Q
Experimental: as §1

MICA008-ECD-HISAvi [7] = target: B2; assay: as above
Experimental: as §1

MICB005-ECD-HISAvi [8] = target: B6; assay: as above
Experimental: as §1

human MICA002 on cells [9] = target: T1, human MICA002 on cells; assay: flow cytometry, CHO-MICA002 cells
Experimental: CHO-MICA002 cells were incubated with titrated anti-MICA/B antibodies and then APC-labeled anti-human Fc antibody. […] The antibody binding signals of APC (gMFI) to MICA/B were measured by flow cytometry.
(§2) After an incubation time of 30 minutes, the plate was centrifuged and cells were washed with PBS three times. […] After mixing for 30 minutes at room temperature, cells were washed with PBS twice. Fluorescent signal was detected and quantified by flow cytometry (Attune™ CytPix™, ThermoFisher) within the population of live cells (viability dye PI negative).

human MICA004 on cells [10] = target: T3, human MICA004 on cells; assay: flow cytometry, CHO-MICA004 cells; remark: listed apart in the source
Experimental: (§3) IgG1 is an isotype control (IgG). The antibody binding signals of APC (gMFI) to MICA/B were measured by flow cytometry.
as §2

human MICA008 on cells [11] = target: T6, human MICA008 on cells (human); assay: flow cytometry, CHO-MICA008 cells
T6 construct: whole, on cells; also called CHO-MICA008; C1R-MICA008
T6 sequence (Q29983 whole entry): as above
Experimental: as §3, §2

human MICB005 on cells [12] = target: T4, human MICB005 on cells; assay: flow cytometry, CHO-MICB005 cells; remark: listed apart in the source
Experimental: as §3, §2

human MICA008 on cells [13] = target: T6, human MICA008 on cells; assay: flow cytometry, HeLa cells (MICA008)
Experimental: as §3, §2

MICA002-ECD-HISAvi [14] = target: B3; assay: BLI (GatorPrime); antibody on anti-hIgG Fc probe, monomeric antigen in solution;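 note: binding kinetics of anti-MICA/B antibodies measured by biolayer interferometry, with dissociation followed for about 10 min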
Experimental: (§4) The binding kinetics of the antibodies were also measured using the GatorPrime BLI (Biolayer Interferometry) system (Gator Bio, USA). Specifically, the anti-MICA/B antibodies were loaded with HFC (Anti-hIgG Fc, Gator Bio, Cat #: 160003). […] The dissociation kinetics were monitored for approximately 10 minutes. The probes were regenerated between binding cycles with Regeneration Buffer (Gator Bio, Cat #: 120012). Binding kinetics were analyzed using software supplied by the manufacturer.

MICA004-ECD-HISAvi [15] = target: T5, MICA004-ECD-HISAvi; assay: as above
Experimental: as §4

MICA008-ECD-HISAvi [16] = target: B2; assay: as above
Experimental: as §4

MICB005-ECD-HISAvi [17] = target: B6; assay: as above
Experimental: as §4

MICA009Avi = target: T7, MICA009Avi (human); assay: as above
T7 construct: extracellular domain
Experimental: as §4

[18] = target: T8, Cynomolgus monkey MICA (cynoMICA) (Cynomolgus monkey (Macaca fascicularis)); assay: as above
T8 construct: also called cyno monkey MICA; cyno MIC protein
Experimental: as §4

MICA002-ECD-HISAvi [19] = target: B3; assay: SPR (Carterra); antibody captured by anti-human Fc, monomeric ECD antigen injected
Experimental: as §1

MICA004-ECD-HISAvi [20] = target: T5, MICA004-ECD-HISAvi; assay: as above
Experimental: as §1

MICA008-ECD-HISAvi [21] = target: B2; assay: as above
Experimental: as §1

MICB005-ECD-HISAvi [22] = target: B6; assay: as above; remark: listed apart in the source
Experimental: as §1

## B1
Human MICA002 on cells [1]
  EC50: 0.6 µg/mL

## B2
NKG2D-His
  EC50 (read off the curve): ~100 ng/mL

## B3
NKG2D-His
  EC50 (read off the curve): ~200 ng/mL

## B4
Human MICA002 on cells [2]
  EC50: 3.59 µg/mL

## B5
Human MICA002 on cells [2]
  EC50: 4.2 µg/mL

## B6
NKG2D-His
  EC50 (read off the curve): ~20 ng/mL

## B7
Human MICA002 on cells [2]
  EC50: 1.26 µg/mL
Human MICA004 on cells [3]
  EC50: 7.12 µg/mL
Human MICB005 on cells [4]
  EC50: 2.77 µg/mL
MICA002-ECD-HISAvi [5]
  Kd: 61.4 nM
MICA004-ECD-HISAvi [6]
  Kd: 156 nM
MICA008-ECD-HISAvi [7]
  Kd: 255 nM
MICB005-ECD-HISAvi [8]
  Kd: 158 nM

## B8
Human MICA002 on cells [9]
  EC50: 3.56 µg/mL
Human MICA004 on cells [10]
  EC50: 7.25 µg/mL
Human MICA008 on cells [11]
  EC50: 2.08 µg/mL
Human MICB005 on cells [12]
  EC50: 1.71 µg/mL
Human MICA008 on cells [13]
  EC50: 4.09 µg/mL
MICA002-ECD-HISAvi [14]
  Kd: 0.0956 nM
MICA004-ECD-HISAvi [15]
  Kd: 1.39 nM
MICA008-ECD-HISAvi [16]
  Kd: 0.504 nM
MICB005-ECD-HISAvi [17]
  Kd: 0.425 nM
MICA009Avi
  Kd: 0.262 nM
[18]
  Kd: 13.9 nM
MICA002-ECD-HISAvi [19]
  Kd: 1.67 nM
MICA004-ECD-HISAvi [20]
  Kd: 5.02 nM
MICA008-ECD-HISAvi [21]
  Kd: 23.2 nM
MICB005-ECD-HISAvi [22]
  Kd: 4.38 nM
MICA002-ECD-HISAvi [5]
  Kd: 0.313 nM
MICA004-ECD-HISAvi [6]
  Kd: 12.8 nM
MICA008-ECD-HISAvi [7]
  Kd: 1 nM
MICB005-ECD-HISAvi [8]
  Kd: 0.486 nM
